In PMC2110890, “Glutathione mediated regulation of oligomeric structure and functional activity of Plasmodium falciparum glutathione S-transferase” (BMC Structural Biology, 2007):

How the values were obtained:
human GST (human) [1] = biological target: human GST (human) (UniProt P09211); experiment: SEC; Superdex 200 10/300 GL, 100 mM potassium phosphate pH 8.0, 1 mM EDTA, 25°C; incubated and run with GSH at 0.7 mM or more (2 mM GSH in Figures 1B and 3)
human GST (human) [2] = biological target: human GST (human) (UniProt P09211); experiment: cross-linking; 1% glutaraldehyde, 30 min, room temperature, protein 50 μg/mL, 10% SDS-PAGE; sample incubated with GSH
human GST (human) [3] = biological target: human GST (human) (UniProt P09211); experiment: SEC; Superdex 200 10/300 GL, 100 mM potassium phosphate pH 8.0, 1 mM EDTA, 0.3 mL/min, 25°C; incubated and run without GSH
human GST (human) [4] = biological target: human GST (human) (UniProt P09211); experiment: cross-linking; 1% glutaraldehyde, 30 min, room temperature, protein 50 μg/mL, 10% SDS-PAGE; sample without GSH
[5] = biological target: the molecule itself; experiment: SEC; GSH-stabilized dimer dialysed for 4 h against buffer without GSH, then loaded on the column
[6] = biological target: the molecule itself; experiment: SEC; Superdex 200 10/300 GL, 100 mM potassium phosphate pH 8.0, 1 mM EDTA, 0.3 mL/min, 25°C; incubated and run without GSH
[7] = biological target: the molecule itself; experiment: SEC; Superdex 200 10/300 GL, 100 mM potassium phosphate pH 8.0, 1 mM EDTA, 25°C; incubated and run with GSH at 0.7 mM or more (2 mM GSH in Figures 1B and 3)

“human GST (from UniProt P09211 1-210) (enzyme)” was tested, and the stoichiometry N (human GST (human) [1]) was 2, the stoichiometry N (human GST (human) [2]) was 2 and the stoichiometry N (human GST (human) [3]) was 2. For the same molecule, the stoichiometry N (human GST (human) [4]) was 2.

B1: Plasmodium falciparum glutathione S-transferase (enzyme, UniProt Q8ILQ7 1-211, looked up)
chain: MGDNIVLYYFDARGKAELIRLIFAYLGIEYTDKRFGVNGDAFVEFKNFKKEKDTPFEQVPILQIGDLILAQSQAIVRYLSKKYNICGESELNEFYADMIFCGVQDIHYKFNNTNLFKQNETTFLNEDLPKWSGYFEKLLKKNHTNNNNDKYYFVGNNLTYADLAVFNLYDDIETKYPSSLKNFPLLKAHNEFISNLPNIKNYITNRKESVY
notes: Glutathione S-transferase of Plasmodium falciparum (PfGST), recombinant, about 26 kDa on SDS-PAGE; The chain is a homotetramer without GSH and a homodimer at GSH of 0.7 mM or more, so copies is left empty; also called PfGST; recombinant PfGST; source: E. coli M15, purified (Ni-NTA agarose)
In the case of B1, the “ratio of dimer to tetramer” value [5] is reported as ~0.33 dimer:tetramer, the “stoichiometry N” value [6] is reported as 4 and the “stoichiometry N” value [7] is reported as 2.
